Measurements as given in patent US9950027 (TXP PHARMA, dated 2018).
Where two headings read alike, the source gives them in different places. Side-chain parts run from the residue outwards. [ ]: non-standard residue; d: D form. Ac‑(Lys-Ac)Lys‑Lys = branched amino acid probe attached to the ε-amino group of the lysine

How the values were obtained:
[1] = target: T1, MC3r (human recombinant, CHO cells) (human, UniProt P41968 1-323); assay: radioligand binding, CHO cells expressing human MC3r; affinity as a multiple of αMSH's
T1 construct: whole, on cells
T1 sequence (P41968 whole entry): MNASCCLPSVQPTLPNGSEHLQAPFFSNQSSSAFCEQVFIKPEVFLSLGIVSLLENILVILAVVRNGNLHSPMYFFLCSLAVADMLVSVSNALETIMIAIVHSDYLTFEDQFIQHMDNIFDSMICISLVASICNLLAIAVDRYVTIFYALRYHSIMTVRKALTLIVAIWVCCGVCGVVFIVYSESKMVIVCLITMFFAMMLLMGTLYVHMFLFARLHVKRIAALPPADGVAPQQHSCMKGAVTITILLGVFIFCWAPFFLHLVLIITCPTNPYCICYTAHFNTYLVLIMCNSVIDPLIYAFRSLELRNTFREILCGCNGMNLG

[2] = target: T2, MC4r (human recombinant, CHO cells) (human, UniProt P32245 1-332); assay: radioligand binding, CHO cells expressing human MC4r; affinity as a multiple of αMSH's
T2 construct: whole, on cells
T2 sequence (P32245 whole entry): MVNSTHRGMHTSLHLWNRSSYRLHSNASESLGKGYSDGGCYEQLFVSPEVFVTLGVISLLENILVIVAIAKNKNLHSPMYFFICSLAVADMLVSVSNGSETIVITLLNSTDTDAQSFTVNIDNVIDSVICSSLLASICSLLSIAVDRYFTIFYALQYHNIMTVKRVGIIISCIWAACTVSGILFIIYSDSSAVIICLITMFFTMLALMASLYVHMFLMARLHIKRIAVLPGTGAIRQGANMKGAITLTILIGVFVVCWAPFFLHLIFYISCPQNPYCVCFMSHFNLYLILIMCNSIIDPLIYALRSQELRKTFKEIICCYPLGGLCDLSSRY

[3] = target: T3, MC1r (murine B16-F1 cells) (murine, UniProt Q01727 1-315); assay: radioligand binding, murine B16-F1 cells expressing MC1r; affinity as a multiple of αMSH's
T3 construct: whole, on cells; also called MCr1
T3 sequence (Q01727 whole entry): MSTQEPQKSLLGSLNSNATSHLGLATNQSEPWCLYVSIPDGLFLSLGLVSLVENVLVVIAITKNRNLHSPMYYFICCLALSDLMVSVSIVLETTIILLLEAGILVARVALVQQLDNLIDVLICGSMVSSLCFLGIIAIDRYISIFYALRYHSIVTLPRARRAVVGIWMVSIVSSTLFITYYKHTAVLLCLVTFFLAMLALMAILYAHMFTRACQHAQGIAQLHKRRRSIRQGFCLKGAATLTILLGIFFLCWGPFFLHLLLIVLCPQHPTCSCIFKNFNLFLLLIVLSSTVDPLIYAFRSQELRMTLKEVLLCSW

[4] = target: T2, MC4r (human recombinant, CHO cells); assay: displacement of 125I-NDP-αMSH, CHO cells expressing human MC4r; affinity as a multiple of αMSH's
Method: (§1) Murine B16-F1 cells expressing MCr1 are used for determination of binding affinity to and agonist activity against the MC1r. Human recombinant CHO cells expressing MC3r, MC4r or MC5r are used for determination of affinity to or agonist activity against the MC3r, MC4r and MC5r, respectively. […] The test items are tested in a concentration range of 10^-13 to 10^-5M.

[5] = target: T1, MC3r (human recombinant, CHO cells); assay: displacement of 125I-NDP-αMSH, CHO cells expressing human MC3r; affinity as a multiple of αMSH's
Method: as §1

[6] = target: T3, MC1r (murine B16-F1 cells); assay: displacement of 125I-NDP-αMSH, murine B16-F1 cells expressing MC1r; affinity as a multiple of αMSH's
Method: as §1

[7] = target: T4, MC5r (human recombinant, CHO cells) (human, UniProt P33032 1-325); assay: displacement of 125I-NDP-αMSH, CHO cells expressing human MC5r (method of Example 2, not restated)
T4 construct: whole, on cells
T4 sequence (P33032 whole entry): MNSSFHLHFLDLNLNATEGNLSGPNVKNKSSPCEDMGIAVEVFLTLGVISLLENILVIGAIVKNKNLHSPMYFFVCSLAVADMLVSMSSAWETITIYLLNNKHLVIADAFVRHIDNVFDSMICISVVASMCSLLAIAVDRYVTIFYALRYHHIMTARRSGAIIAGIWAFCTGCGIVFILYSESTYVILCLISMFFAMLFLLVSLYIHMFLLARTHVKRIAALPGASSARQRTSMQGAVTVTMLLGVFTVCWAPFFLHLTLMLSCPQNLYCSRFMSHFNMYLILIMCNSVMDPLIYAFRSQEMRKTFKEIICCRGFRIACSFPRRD
Method: as §1

[8] = target: T3, MC1r (murine B16-F1 cells); assay: displacement of 125I-NDP-αMSH, murine B16-F1 cells expressing MC1r (method of Example 2, not restated)
Method: as §1

[9] = target: T2, MC4r (human recombinant, CHO cells); assay: displacement of 125I-NDP-αMSH, CHO cells expressing human MC4r (method of Example 2, not restated)
Method: as §1

[10] = target: T1, MC3r (human recombinant, CHO cells); assay: displacement of 125I-NDP-αMSH, CHO cells expressing human MC3r (method of Example 2, not restated)
Method: as §1

[11] = target: T2, MC4r (human recombinant, CHO cells); assay: cell-based or functional assay
[12] = target: T4, MC5r (human recombinant, CHO cells); assay: cell-based or functional assay
[13] = target: T3, MC1r (murine B16-F1 cells); assay: cell-based or functional assay
human GLP-2 receptor = target: T5, human GLP-2 receptor (human, UniProt O95838 1-553); assay: cell-based or functional assay
T5 sequence (looked up): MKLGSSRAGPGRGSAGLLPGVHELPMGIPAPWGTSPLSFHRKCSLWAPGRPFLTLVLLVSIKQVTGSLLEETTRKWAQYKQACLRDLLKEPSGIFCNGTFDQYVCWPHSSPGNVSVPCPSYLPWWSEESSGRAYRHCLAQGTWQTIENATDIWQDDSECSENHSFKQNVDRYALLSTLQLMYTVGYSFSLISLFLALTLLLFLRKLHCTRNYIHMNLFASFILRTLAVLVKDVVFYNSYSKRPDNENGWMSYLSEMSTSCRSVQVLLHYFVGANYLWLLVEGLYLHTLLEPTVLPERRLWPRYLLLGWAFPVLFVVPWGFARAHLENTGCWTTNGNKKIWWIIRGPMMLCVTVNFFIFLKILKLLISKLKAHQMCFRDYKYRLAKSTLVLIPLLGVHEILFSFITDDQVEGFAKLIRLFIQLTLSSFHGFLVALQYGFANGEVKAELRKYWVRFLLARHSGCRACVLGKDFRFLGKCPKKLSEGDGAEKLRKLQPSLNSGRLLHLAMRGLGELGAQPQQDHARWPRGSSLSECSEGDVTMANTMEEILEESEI

[14] = target: T6, recombinant human type 2 Formyl peptide receptor (FPR2) (human, UniProt P25090 1-351); assay: cell-based or functional assay
T6 sequence (looked up): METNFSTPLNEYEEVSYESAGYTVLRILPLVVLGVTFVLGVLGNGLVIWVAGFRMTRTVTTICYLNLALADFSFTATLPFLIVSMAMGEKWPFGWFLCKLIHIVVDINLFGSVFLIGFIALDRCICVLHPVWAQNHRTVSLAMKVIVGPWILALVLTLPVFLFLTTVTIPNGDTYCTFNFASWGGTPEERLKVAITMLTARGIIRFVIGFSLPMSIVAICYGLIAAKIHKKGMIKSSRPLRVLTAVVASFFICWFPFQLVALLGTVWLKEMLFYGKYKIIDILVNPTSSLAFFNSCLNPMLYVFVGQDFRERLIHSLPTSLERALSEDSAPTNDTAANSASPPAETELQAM

[15] = target: T4, MC5r (human recombinant, CHO cells); assay: displacement of 125I-NDP-αMSH, human recombinant CHO cells expressing MC5r
Method: as §1

[16] = target: T4, MC5r (human recombinant, CHO cells); assay: displacement of 125I-NDP-αMSH, CHO cells expressing human MC5r; affinity as a multiple of αMSH's
Method: as §1

[17] = target: T2, MC4r (human recombinant, CHO cells); assay: displacement of 125I-NDP-αMSH, human recombinant CHO cells expressing MC4r
Method: as §1

[18] = target: T3, MC1r (murine B16-F1 cells); assay: displacement of 125I-NDP-αMSH, murine B16-F1 cells expressing MC1r
Method: as §1

[19] = target: T1, MC3r (human recombinant, CHO cells); assay: displacement of 125I-NDP-αMSH, human recombinant CHO cells expressing MC3r
Method: as §1

[20] = target: T1, MC3r (human recombinant, CHO cells); assay: cell-based or functional assay
[21] = target: T2, MC4r (human recombinant, CHO cells); assay: cell-based or functional assay; remark: listed apart in the source
[22] = target: T4, MC5r (human recombinant, CHO cells); assay: cell-based or functional assay; remark: listed apart in the source
[23] = target: T3, MC1r (murine B16-F1 cells); assay: cell-based or functional assay; remark: listed apart in the source

B1: Analogue 8 (Example 3): Ac-(Ac-Lys-Lys)Lys-Tyr-Val-Nle-Gly-His-DPhe-Arg-DTrp-Asp-Arg-Phe-Gly-NH2 (peptide)
peptide: KYVXGHFRWDRFG
modifications: alpha-amino group of Lys1 acetylated; Ac-Lys-Lys attached to the epsilon-amino group of Lys1; Nle at position 4 (written X); D-Phe at position 7; D-Trp at position 9; C-terminal amide
notes: BAP-modified γ-MSH analogue; X = norleucine
MCr binding affinity relative to αMSH [1]: 37 fold | MCr binding affinity relative to αMSH [2]: 10.7 fold | MCr binding affinity relative to αMSH [3]: 7.3 fold

B2: Analogue 3 (Example 2): Ac-(Ac-Lys-Lys)Lys-Ser-Tyr-Ser-Nle-Glu-His-DPhe-Arg-Trp-Gly-Lys-Pro-Val-NH2 (peptide)
peptide: KSYSXEHFRWGKPV
modifications: alpha-amino group of Lys1 acetylated; Ac-Lys-Lys attached to the epsilon-amino group of Lys1; Nle at position 5 (written X); D-Phe at position 8; C-terminal amide
notes: BAP-modified α-MSH analogue; X = norleucine
MCr binding relative to Control peptide 1 (αMSH) [4]: 47 fold | MCr binding relative to Control peptide 1 (αMSH) [5]: 41 fold

B3: Analogue 7 (Example 3): Ac-(Ac-Lys-Lys)Lys-Tyr-Val-Nle-Gly-His-DPhe-Arg-Trp-Asp-Arg-Phe-Gly-NH2 (peptide)
peptide: KYVXGHFRWDRFG
modifications: alpha-amino group of Lys1 acetylated; Ac-Lys-Lys attached to the epsilon-amino group of Lys1; Nle at position 4 (written X); D-Phe at position 7; C-terminal amide
notes: as for B1
MCr binding affinity relative to αMSH [1]: 46 fold | MCr binding affinity relative to αMSH [2]: 37 fold

Ac-K([Lys-Lys-Ac])SSIISH[dF]RWGKPV-NH2 (BAP-modified α-MSH analogue) [Analogue 4 (Example 2): Ac-(Ac-Lys-Lys)Lys-Ser-Ser-Ile-Ile-Ser-His-DPhe-Arg-Trp-Gly-Lys-Pro-Val-NH2]
MCr binding relative to Control peptide 1 (αMSH) [4]: 53 fold | MCr binding relative to Control peptide 1 (αMSH) [6]: 9.4 fold | MCr binding relative to Control peptide 1 (αMSH) [5]: 42 fold

B4: γ-MSH Analogue 1: Ac-(Ac-Lys-Lys)Lys-Tyr-Val-Met-Gly-His-Phe-Arg-DTrp-Asp-Arg-Phe-Gly-NH2 (peptide)
peptide: KYVMGHFRWDRFG
modifications: alpha-amino group of Lys1 acetylated; Ac-Lys-Lys attached to the epsilon-amino group of Lys1; D-Trp at position 9; C-terminal amide
Ki [7]: 215 nM | Ki [8]: 3.8 nM | Ki [9]: 150 nM | Ki [10]: 15 nM | EC50, cAMP accumulation (agonist activity) [11]: 252 nM | EC50, cAMP accumulation (agonist activity) [12]: 555 nM | EC50, cAMP accumulation (agonist activity) [13]: 68 nM

H-HADGSFSDEMNTILDNLAARDFINWLIQTKITDR-OH [GLP-2 (1-34) control peptide: …]
EC50 (nM), cAMP production (HTRF) (human GLP-2 receptor): 0.36 nM

B5: Analogue 2 (Example 2): Ac-(Ac-Lys-Lys)Lys-Ser-Tyr-Ser-Met-Glu-His-Phe-Arg-Trp-Gly-Lys-Pro-(D-Val)-NH2 (peptide)
peptide: KSYSMEHFRWGKPV
modifications: alpha-amino group of Lys1 acetylated; Ac-Lys-Lys attached to the epsilon-amino group of Lys1; D-Val at position 14; C-terminal amide
notes: BAP-modified α-MSH analogue
MCr binding relative to Control peptide 1 (αMSH) [4]: 8.5 fold | MCr binding relative to Control peptide 1 (αMSH) [5]: 3.3 fold

B6: Analogue 5 (Example 3): Ac-(Ac-Lys-Lys)Lys-Tyr-Val-Nle-Gly-His-Phe-Arg-DTrp-Asp-Arg-Phe-Gly-NH2 (peptide)
peptide: KYVXGHFRWDRFG
modifications: alpha-amino group of Lys1 acetylated; Ac-Lys-Lys attached to the epsilon-amino group of Lys1; Nle at position 4 (written X); D-Trp at position 9; C-terminal amide
notes: as for B1
MCr binding affinity relative to αMSH [1]: 38 fold | MCr binding affinity relative to αMSH [2]: 2.8 fold | MCr binding affinity relative to αMSH [3]: 1.9 fold

B7: Analogue 6 (Example 3): Ac-(Ac-Lys-Lys)Lys-Tyr-Val-Nle-Gly-His-Phe-Arg-Trp-Asp-Arg-Phe-Gly-NH2 (peptide)
peptide: KYVXGHFRWDRFG
modifications: alpha-amino group of Lys1 acetylated; Ac-Lys-Lys attached to the epsilon-amino group of Lys1; Nle at position 4 (written X); C-terminal amide
notes: as for B1
MCr binding affinity relative to αMSH [1]: 4.6 fold | MCr binding affinity relative to αMSH [2]: 2.9 fold

Ac-AMVSEFLK(Ac‑(Lys-Ac)Lys‑Lys)QAW-NH2
EC50, agonist activity (aequorin light emission) [14]: 1560 nM

B8: α-MSH Analogue 1: Ac-(Ac-Lys-Lys)Lys-Ser-Tyr-Ser-Met-Glu-His-Phe-Arg-Trp-Gly-Lys-Pro-Val-NH2 (peptide)
peptide: KSYSMEHFRWGKPV
modifications: alpha-amino group of Lys1 acetylated; Ac-Lys-Lys attached to the epsilon-amino group of Lys1 (branched amino acid probe Ac-(Ac-Lys-Lys)Lys-); C-terminal amide
Ki [15]: 193 nM | MCr binding relative to Control peptide 1 (αMSH) [16]: 2 fold | Ki [17]: 26 nM | Ki [18]: 1.2 nM | MCr binding relative to Control peptide 1 (αMSH) [6]: 4 fold | Ki [19]: 24 nM | EC50, cAMP accumulation (agonist activity) [20]: 53 nM | EC50, cAMP accumulation (agonist activity) [21]: 18 nM | EC50, cAMP accumulation (agonist activity) [22]: 625 nM | EC50, cAMP accumulation (agonist activity) [23]: 8.9 nM
